In article doi:10.1101/2023.06.19.545549 one finds stoichiometry N data, which are given here for 1 substance.

This experiment concerns the target N2β1α1C1, purified recombinant (the MxDnaK1 chimera with the MxDnaK2 NBD) (Myxococcus xanthus DK1622). The experiment is described as follows: SDS-PAGE of the purified protein.

In general, stoichiometry N refers to a count of units in the complex or per binding partner.

“N2β1α1C1, purified recombinant (the MxDnaK1 chimera with the MxDnaK2 NBD)”: the stoichiometry N amounted to 2.
